The values below come from patent US20250339531A1, “DUX4 POLYPEPTIDES AND NUCLEIC ACIDS FOR TREATING INFLAMMATORY AND AUTOIMMUNE CONDITIONS” (Fred Hutchinson Cancer Center, priority 2021, published 2025).

The test system of the test is proteins that co-immunoprecipitated with DUX4-CTD constructs expressed in MB135 myoblasts. Description: LC-MS of proteins co-immunoprecipitated with DUX4-CTD (Table 1) and western validation. It counts as binding, human. Also noted: key to 4. mL1dL2 + Dox + IFNG / 4. + IFNG mix / 4. longCTD + Dox + IFNG / 3. + IFNg + Dox longCTD / 3. + Dox longCTD / 3. + IFNG longCTD: peptide-spectrum matches (PSMs) per protein. Particulars: for 3. + IFNg + Dox longCTD / 3. + Dox longCTD: bait longCTD; for 3. + IFNg + Dox longCTD: experiment 3, IFNg + Dox; for SUM of PSMS: sum over all samples; for 4. longCTD + Dox + IFNG: LC-MS counts of the listed protein co-immunoprecipitated with DUX4-CTD bait longCTD, experiment 4, Dox + IFNG; for 3. + Dox longCTD: experiment 3, Dox only. A digest of the protocol:
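FLAG-tagged DUX4-CTD expressed in doxycycline-induced MB135 myoblasts, some also IFNG-treated; nuclear lysates in pH 7.4 NP-40 IP buffer were pre-cleared, then anti-FLAG immunoprecipitated 3 h at 4 °C. For LC-MS, FLAG-peptide elution, in-gel trypsin digest, Orbitrap analysis; proteins with ≥2 PSMs in both experiments categorised and ranked by total PSMs.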

B1: P29508 (protein, UniProt P29508 1-390, looked up)
chain: MNSLSEANTKFMFDLFQQFRKSKENNIFYSPISITSALGMVLLGAKDNTAQQIKKVLHFDQVTENTTGKAATYHVDRSGNVHHQFQKLLTEFNKSTDAYELKIANKLFGEKTYLFLQEYLDAIKKFYQTSVESVDFANAPEESRKKINSWVESQTNEKIKNLIPEGNIGSNTTLVLVNAIYFKGQWEKKFNKEDTKEEKFWPNKNTYKSIQMMRQYTSFHFASLEDVQAKVLEIPYKGKDLSMIVLLPNEIDGLQKLEEKLTAEKLMEWTSLQNMRETRVDLHLPRFKVEESYDLKDTLRTMGMVDIFNGDADLSGMTGSRGLVLSGVLHKAFVEVTEEGAEAAAATAVVGFGSSPTSTNEEFHCNHPFLFFIRQNKTNSILFYGRFSSP
modifications: full-length
Turning to B1, the “3. + IFNg + Dox longCTD” value was determined as 2 and the “SUM of PSMS” value turned out to be 4.

B2: Q9UN86 (protein, UniProt Q9UN86 1-482, looked up)
chain: MVMEKPSPLLVGREFVRQYYTLLNKAPEYLHRFYGRNSSYVHGGVDASGKPQEAVYGQNDIHHKVLSLNFSECHTKIRHVDAHATLSDGVVVQVMGLLSNSGQPERKFMQTFVLAPEGSVPNKFYVHNDMFRYEDEVFGDSEPELDEESEDEVEEEQEERQPSPEPVQENANSGYYEAHPVTNGIEEPLEESSHEPEPEPESETKTEELKPQVEEKNLEELEEKSTTPPPAEPVSLPQEPPKAFSWASVTSKNLPPSGTVSSSGIPPHVKAPVSQPRVEAKPEVQSQPPRVREQRPRERPGFPPRGPRPGRGDMEQNDSDNRRIIRYPDSHQLFVGNLPHDIDENELKEFFMSFGNVVELRINTKGVGGKLPNFGFVVFDDSEPVQRILIAKPIMFRGEVRLNVEEKKTRAARERETRGGGDDRRDIRRNDRGPGGPRGIVGGGMMRDRDGRGPPPRGGMAQKLGSGRGTGQMEGRFTGQRR
modifications: full-length
In the case of B2, the “4. longCTD + Dox + IFNG” value is recorded as 1, the “3. + Dox longCTD” value was 1, the “3. + IFNg + Dox longCTD” value amounted to 3 and the “SUM of PSMS” value stood at 6.

B3: P52597 (protein, UniProt P52597 1-415, looked up)
chain: MMLGPEGGEGFVVKLRGLPWSCSVEDVQNFLSDCTIHDGAAGVHFIYTREGRQSGEAFVELGSEDDVKMALKKDRESMGHRYIEVFKSHRTEMDWVLKHSGPNSADSANDGFVRLRGLPFGCTKEEIVQFFSGLEIVPNGITLPVDPEGKITGEAFVQFASQELAEKALGKHKERIGHRYIEVFKSSQEEVRSYSDPPLKFMSVQRPGPYDRPGTARRYIGIVKQAGLERMRPGAYSTGYGGYEEYSGLSDGYGFTTDLFGRDLSYCLSGMYDHRYGDSEFTVQSTTGHCVHMRGLPYKATENDIYNFFSPLNPVRVHIEIGPDGRVTGEADVEFATHEEAVAAMSKDRANMQHRYIELFLNSTTGASNGAYSSQVMQGMGVSAAQATYSGLESQSVSGCYGAGYSGQNSMGGYD
modifications: full-length
As to B3, the “4. longCTD + Dox + IFNG” value was found to be 1, the “3. + Dox longCTD” value is given as 1, the “3. + IFNg + Dox longCTD” value amounted to 4 and the “SUM of PSMS” value stood at 6.

B4: O94919 (protein, UniProt O94919 1-500, looked up)
chain: MGTARWLALGSLFALAGLLEGRLVGEEEAGFGECDKFFYAGTPPAGLAADSHVKICQRAEGAERFATLYSTRDRIPVYSAFRAPRPAPGGAEQRWLVEPQIDDPNSNLEEAINEAEAITSVNSLGSKQALNTDYLDSDYQRGQLYPFSLSSDVQVATFTLTNSAPMTQSFQERWYVNLHSLMDRALTPQCGSGEDLYILTGTVPSDYRVKDKVAVPEFVWLAACCAVPGGGWAMGFVKHTRDSDIIEDVMVKDLQKLLPFNPQLFQNNCGETEQDTEKMKKILEVVNQIQDEERMVQSQKSSSPLSSTRSKRSTLLPPEASEGSSSFLGKLMGFIATPFIKLFQLIYYLVVAILKNIVYFLWCVTKQVINGIESCLYRLGSATISYFMAIGEELVSIPWKVLKVVAKVIRALLRILCCLLKAICRVLSIPVRVLVDVATFPVYTMGAIPIVCKDIALGLGGTVSLLFDTAFGTLGGLFQVVFSVCKRIGYKVTFDNSGEL
modifications: full-length
On to B4, for which the “4. longCTD + Dox + IFNG” value worked out at 2, the “3. + IFNg + Dox longCTD” value amounted to 1 and the “SUM of PSMS” value was 5.

B5: P17655 (protein, UniProt P17655 1-700, looked up)
chain: MAGIAAKLAKDREAAEGLGSHDRAIKYLNQDYEALRNECLEAGTLFQDPSFPAIPSALGFKELGPYSSKTRGIEWKRPTEICADPQFIIGGATRTDICQGALGDCWLLAAIASLTLNEEILARVVPLNQSFQENYAGIFHFQFWQYGEWVEVVVDDRLPTKDGELLFVHSAEGSEFWSALLEKAYAKINGCYEALSGGATTEGFEDFTGGIAEWYELKKPPPNLFKIIQKALQKGSLLGCSIDITSAADSEAITFQKLVKGHAYSVTGAEEVESNGSLQKLIRIRNPWGEVEWTGRWNDNCPSWNTIDPEERERLTRRHEDGEFWMSFSDFLRHYSRLEICNLTPDTLTSDTYKKWKLTKMDGNWRRGSTAGGCRNYPNTFWMNPQYLIKLEEEDEDEEDGESGCTFLVGLIQKHRRRQRKMGEDMHTIGFGIYEVPEELSGQTNIHLSKNFFLTNRARERSDTFINLREVLNRFKLPPGEYILVPSTFEPNKDGDFCIRVFSEKKADYQAVDDEIEANLEEFDISEDDIDDGFRRLFAQLAGEDAEISAFELQTILRRVLAKRQDIKSDGFSIETCKIMVDMLDSDGSGKLGLKEFYILWTKIQKYQKIYREIDVDRSGTMNSYEMRKALEEAGFKMPCQLHQVIVARFADDQLIIDFDNFVRCLVRLETLFKIFKQLDPENTGTIELDLISWLCFSVL
modifications: full-length
Turning to B5, the “4. longCTD + Dox + IFNG” value is 3, the “3. + IFNg + Dox longCTD” value came to 1 and the “SUM of PSMS” value is on record as 4.

B6: Q86YD1 (protein, UniProt Q86YD1 1-416, looked up)
chain: MVRPRRAPYRSGAGGPLGGRGRPPRPLVVRAVRSRSWPASPRGPQPPRIRARSAPPMEGARVFGALGPIGPSSPGLTLGGLAVSEHRLSNKLLAWSGVLEWQEKRRPYSDSTAKLKRTLPCQAYVNQGENLETDQWPQKLIMQLIPQQLLTTLGPLFRNSQLAQFHFTNRDCDSLKGLCRIMGNGFAGCMLFPHISPCEVRVLMLLYSSKKKIFMGLIPYDQSGFVSAIRQVITTRKQAVGPGGVNSGPVQIVNNKFLAWSGVMEWQEPRPEPNSRSKRWLPSHVYVNQGEILRTEQWPRKLYMQLIPQQLLTTLVPLFRNSRLVQFHFTKDLETLKSLCRIMDNGFAGCVHFSYKASCEIRVLMLLYSSEKKIFIGLIPHDQGNFVNGIRRVIANQQQVLQRNLEQEQQQRGMGG
modifications: full-length
B6: the “4. longCTD + Dox + IFNG” value was 2, the “3. + Dox longCTD” value stood at 2 and the “SUM of PSMS” value stood at 4.

B7: P26196 (protein, UniProt P26196 1-483, looked up)
chain: MSTARTENPVIMGLSSQNGQLRGPVKPTGGPGGGGTQTQQQMNQLKNTNTINNGTQQQAQSMTTTIKPGDDWKKTLKLPPKDLRIKTSDVTSTKGNEFEDYCLKRELLMGIFEMGWEKPSPIQEESIPIALSGRDILARAKNGTGKSGAYLIPLLERLDLKKDNIQAMVIVPTRELALQVSQICIQVSKHMGGAKVMATTGGTNLRDDIMRLDDTVHVVIATPGRILDLIKKGVAKVDHVQMIVLDEADKLLSQDFVQIMEDIILTLPKNRQILLYSATFPLSVQKFMNSHLQKPYEINLMEELTLKGVTQYYAYVTERQKVHCLNTLFSRLQINQSIIFCNSSQRVELLAKKISQLGYSCFYIHAKMRQEHRNRVFHDFRNGLCRNLVCTDLFTRGIDIQAVNVVINFDFPKLAETYLHRIGRSGRFGHLGLAINLITYDDRFNLKSIEEQLGTEIKPIPSNIDKSLYVAEYHSEPVEDEKP
modifications: full-length
With B7, the “4. longCTD + Dox + IFNG” value came out at 1, the “3. + Dox longCTD” value turned out to be 2, the “3. + IFNg + Dox longCTD” value was 3 and the “SUM of PSMS” value stood at 6.
